Laboratory results from article PMC7043065 (Cell reports, 2020).

Molecular target: C-X-C motif chemokine 12 (CXCL12) (mouse (endogenous in BM-MSC of C57BL/6 …, UniProt P40224 22-93))
Assay: cross-linking + co-IP

Chain of C-X-C motif chemokine 12 (CXCL12) (mouse (P40224 22-93): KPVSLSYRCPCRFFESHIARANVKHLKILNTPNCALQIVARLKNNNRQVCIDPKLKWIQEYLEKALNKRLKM

B1: chemokine ligand 2 (CCL2) (natural protein)
chain: not shown
  molar interaction ratio of CXCL12/CCL2: > 1
